Test results: PMC6780499, “Characterization, Recombinant Production and Structure-Function Analysis of NvCI, A Picomolar Metallocarboxypeptidase Inhibitor from the Marine Snail Nerita versicolor” (Marine Drugs, 2019)
Read-outs that look alike come from different tables or passages of the source. No end group written: not given here.

Columns and labels:
bCPA1 [1] = target: T1, bCPA1 (Bos taurus, UniProt P00730); experiment: Ki determination, tight-binding inhibition of metallocarboxypeptidase; format: biochemical, bovine; details: natural isoforms; apparent Ki, without correction by competing assays; read-out: derived Ki towards bCPA (apparent Ki values)
T1 sequence (P00730 111-419): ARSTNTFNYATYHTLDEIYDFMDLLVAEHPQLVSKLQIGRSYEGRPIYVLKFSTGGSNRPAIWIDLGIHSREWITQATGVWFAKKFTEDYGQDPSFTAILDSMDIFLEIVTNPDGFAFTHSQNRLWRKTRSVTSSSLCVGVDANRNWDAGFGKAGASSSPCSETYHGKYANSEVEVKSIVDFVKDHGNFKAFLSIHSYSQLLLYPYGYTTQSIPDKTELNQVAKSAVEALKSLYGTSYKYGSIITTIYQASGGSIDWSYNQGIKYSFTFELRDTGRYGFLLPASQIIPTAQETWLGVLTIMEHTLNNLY
Description: Inhibitory activities against CPA- and CPB-type forms (bovine and human variants of CPA1, CPA2, CPA4, CPB1, and TAFI) were assayed for all extracts, subject to the experimental conditions that enzyme (E), substrate (S) and inhibitor (I) concentrations as well as the [I]/[E] ratio and preincubation time followed the requirements for tight-binding inhibitor assays. Similar approaches were followed to measure the activities of proteases of different catalytic types, like pepsin, papain, trypsin and subtilisin [45, 46, 47, 48]. All assays were performed in triplicate at 25 °C in a multiplexed manner. For 96-well assays an iEMS spectrophotometer reader/dispenser FM (Labsystems, Finland) was used with a final reaction volume of 250 μL. For cuvette assays, a Cary 400 Bio spectrophotometer (Varian Inc., Palo Alto, CA, USA) spectrophotometer was used with a final reaction volume of 1 ml. The reactions were followed at 5 s intervals for 5 min and recorded as initial velocities. In the protease inhibition assays, mixtures of activity buffer, biological sample and enzyme were preincubated at 25 °C for 10min, before substrate addition. The assay conditions were as follows: for CPA-like enzymes, 7.0nM CPA, 0.1mM AAFP substrate in 20mM Tris-HCl pH 7.5, 500mMNaCl, 1% v/v dimethyl sulfoxide (DMSO), 0.05% w/v BRIJ-35 was used. For CPB-like enzymes, CPB 3.0nM CPB, 0.1mM AAFA substrate and activity buffer of 20 mM Tris-HCl pH [50].
The Ki values of natural and recombinant NvCI against bCPA1, hCPA1, hCPA2, rat CPA3, hCPA4, hCPB1, bTAFI, hTAFI, hCPD and hCPZ were determined by measuring the enzymatic residual activity (Vi/V0 = a) at different inhibitor concentrations and using a fixed enzyme and substrate concentrations as described above, where vi and v0 are the fraction of enzymatic activity in the presence and absence of inhibitor, respectively, in terms of initial velocities. The determination of Ki values was carried out on equilibrium conditions ([E0]/Ki ≤ 10), using a previously determined preincubation time of 15 min, required to establish enzyme-inhibitor equilibrium. Working temperature was 37 °C. The best estimates of Ki values were obtained by fitting the experimental data to the equation for tight-binding inhibitors by non-linear regression using the GraphPad Prisma 5 software (GraphPad Software, Inc., San Diego, CA, USA) at p < 0.05. The real Ki values against each of these A/B-type MCPs were calculated according to the equation described by Morrison and Copeland [19, 20].

HepG2 cells = experiment: Cellular uptake by confocal laser scanning microscopy; format: cell-based, human; details: HepG2, 20 µg/ml, 4 h at 37 °C, CLSM, LysoTracker and Hoechst staining
Description: Recombinant NvCI was fluorescently labelled with an Alexa Fluor 488 Protein Labeling Kit (Molecular Probes, Eugene, OR, USA). HepG2 cells were seeded in a 35 mm glass-bottom culture dish (MatTek Corporation, Ashland, MA, USA) at a density of 4 × 10^5 cells/well and incubated for 24 h. The cells were incubated with 20 µg/ml Alexa 488-NvCI for 4 h at 37 °C. Prior to imaging, lysosomes and nuclei were stained with Lysotracker Red and Hoechst (Invitrogen, Carlsbard, CA, USA), respectively, for 90 or 10 min.

bCPA1 [2] = target: T1, bCPA1; details: cited from earlier work
From the text: (§1) Table 2 Ki values of various proteinaceous metallocarboxypeptidases (MCPs) inhibitors. | column: Ki (nM) / rPCI (a); Ki (nM) / rTCI (b); Ki (nM) / rLCI (c); Ki (nM) / rACI (d); Ki (nM) / rhuman latexin (e)

hCPA1 = target: T2, hCPA1 (Homo sapiens, UniProt P15085); details: cited from earlier work
T2 sequence (P15085 111-419): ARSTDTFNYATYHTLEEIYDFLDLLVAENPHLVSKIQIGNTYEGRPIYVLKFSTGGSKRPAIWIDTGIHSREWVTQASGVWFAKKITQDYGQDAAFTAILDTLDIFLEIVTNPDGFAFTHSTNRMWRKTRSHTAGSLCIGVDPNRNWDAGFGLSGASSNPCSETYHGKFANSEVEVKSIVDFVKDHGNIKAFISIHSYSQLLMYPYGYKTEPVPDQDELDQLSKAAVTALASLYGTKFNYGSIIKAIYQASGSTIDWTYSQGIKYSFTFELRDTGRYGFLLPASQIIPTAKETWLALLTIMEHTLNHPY
From the text: as §1

hCPA2 = target: T3, hCPA2 (Homo sapiens, UniProt P48052); details: cited from earlier work
T3 sequence (P48052 115-419): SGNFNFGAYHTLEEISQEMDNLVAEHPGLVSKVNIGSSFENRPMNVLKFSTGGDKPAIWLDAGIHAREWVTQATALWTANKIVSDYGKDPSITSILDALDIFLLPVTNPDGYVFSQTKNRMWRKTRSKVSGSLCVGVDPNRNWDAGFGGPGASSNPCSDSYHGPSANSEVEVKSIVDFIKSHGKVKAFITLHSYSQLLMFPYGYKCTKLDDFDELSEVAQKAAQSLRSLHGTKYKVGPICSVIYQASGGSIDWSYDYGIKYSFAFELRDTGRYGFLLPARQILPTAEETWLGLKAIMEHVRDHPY
From the text: as §1

hCPA4 = target: T4, hCPA4 (Homo sapiens, UniProt Q9UI42); details: cited from earlier work
T4 sequence (Q9UI42 114-421): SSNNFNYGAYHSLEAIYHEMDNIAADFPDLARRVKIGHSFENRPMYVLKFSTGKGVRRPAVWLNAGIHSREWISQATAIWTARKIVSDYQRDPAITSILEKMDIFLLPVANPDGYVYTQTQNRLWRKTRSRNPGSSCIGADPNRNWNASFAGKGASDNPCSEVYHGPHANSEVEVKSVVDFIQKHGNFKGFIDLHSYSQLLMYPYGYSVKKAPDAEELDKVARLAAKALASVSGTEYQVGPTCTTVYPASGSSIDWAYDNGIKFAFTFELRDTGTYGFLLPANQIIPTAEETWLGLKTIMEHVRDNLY
From the text: as §1

hCPB = target: T5, hCPB (Homo sapiens, UniProt P15086); details: cited from earlier work
T5 sequence (P15086 111-417): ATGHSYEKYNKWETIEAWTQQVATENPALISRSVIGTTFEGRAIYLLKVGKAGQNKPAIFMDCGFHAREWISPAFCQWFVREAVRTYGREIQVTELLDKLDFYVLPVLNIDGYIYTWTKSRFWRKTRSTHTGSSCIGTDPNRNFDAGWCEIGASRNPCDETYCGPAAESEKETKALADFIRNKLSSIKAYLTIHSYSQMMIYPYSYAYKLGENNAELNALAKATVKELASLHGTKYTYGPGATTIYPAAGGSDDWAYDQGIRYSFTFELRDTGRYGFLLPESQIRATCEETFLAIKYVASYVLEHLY
From the text: Table 2 Ki values of various proteinaceous metallocarboxypeptidases (MCPs) inhibitors. | column: Ki (nM) / rPCI (a); Ki (nM) / rTCI (b); Ki (nM) / rLCI (c); Ki (nM) / rhuman latexin (e)

hTAFI = target: T6, hTAFI (Homo sapiens, UniProt Q96IY4); details: cited from earlier work
T6 sequence (Q96IY4 115-423): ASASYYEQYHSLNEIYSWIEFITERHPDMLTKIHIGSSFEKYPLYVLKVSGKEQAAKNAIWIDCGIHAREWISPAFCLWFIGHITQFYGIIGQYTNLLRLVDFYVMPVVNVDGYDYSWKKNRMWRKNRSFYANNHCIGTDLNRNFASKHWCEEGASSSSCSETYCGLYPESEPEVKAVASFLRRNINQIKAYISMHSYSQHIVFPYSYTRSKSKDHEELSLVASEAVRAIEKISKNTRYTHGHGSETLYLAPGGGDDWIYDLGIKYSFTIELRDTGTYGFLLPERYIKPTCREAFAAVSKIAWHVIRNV
From the text: Table 2 Ki values of various proteinaceous metallocarboxypeptidases (MCPs) inhibitors. | column: Ki (nM) / rPCI (a); Ki (nM) / rTCI (b); Ki (nM) / rACI (d); Ki (nM) / rhuman latexin (e)

pCPB = target: T7, pCPB (Sus scrofa, UniProt P09955); details: ref Arolas et al., 2004 [21]; cited from earlier work
T7 sequence (P09955 111-416): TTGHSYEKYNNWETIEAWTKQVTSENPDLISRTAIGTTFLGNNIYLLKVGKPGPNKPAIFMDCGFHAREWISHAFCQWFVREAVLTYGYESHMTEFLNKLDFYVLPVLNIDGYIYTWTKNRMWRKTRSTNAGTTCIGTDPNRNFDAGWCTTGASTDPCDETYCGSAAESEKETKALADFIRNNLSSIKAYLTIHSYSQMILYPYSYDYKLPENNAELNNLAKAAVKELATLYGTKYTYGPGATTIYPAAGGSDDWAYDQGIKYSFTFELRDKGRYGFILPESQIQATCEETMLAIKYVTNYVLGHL
From the text: Table 2 Ki values of various proteinaceous metallocarboxypeptidases (MCPs) inhibitors. | column: Ki (nM) / rPCI (a); Ki (nM) / rTCI (b); Ki (nM) / rLCI (c)

NvCIc: minor natural isoform, lacks the N-terminal Phe as compared to NvCIa (HVPDDRPCINPGRCPLVPDATCTFVCKAADNDFGYECQHVWTFEGQRVGCYA; three intrachain disulphides)
Ki (bCPA1 [1]): 0.049 ± 0.002 nM

NvCId: minor natural isoform, lacks the N-terminal Phe as compared to NvCIb (HVPDDRPCIKPGRCPLVPDATCTFVCKAADNDFGYECQHVWTFEGQRVGCYA; three intrachain disulphides)
Ki (bCPA1 [1]): 0.022 ± 0.001 nM

NvCIb: natural isoform of NvCI with N→K substitution at the 11th residue (FHVPDDRPCIKPGRCPLVPDATCTFVCKAADNDFGYECQHVWTFEGQRVGCYA; three intrachain disulphides)
Ki (bCPA1 [1]): 0.038 ± 0.002 nM

Alexa488-labelled NvCI: recombinant NvCI fluorescently labelled with an Alexa Fluor 488 Protein Labeling Kit (FHVPDDRPCINPGRCPLVPDATCTFVCKAADNDFGYECQHVWTFEGQRVGCYA; ends and bridges not checked; also: Alexa Fluor 488 label; UniProt P86912 1-53, looked up)
cellular uptake / internalization (HepG2 cells): internalized NvCI was distributed through the cytoplasm

B1: rhuman latexin: recombinant human latexin, larger (19–22 kDa) endogenous protein inhibitor of carboxypeptidases (protein, UniProt Q9BS40 1-222, looked up)
Latexin: MEIPPTNYPASRAALVAQNYINYQQGTPHRVFEVQKVKQASMEDIPGRGHKYHLKFAVEEIIQKQVKVNCTAEVLYPSTGQETAPEVNFTFEGETGKNPDEEDNTFYQRLKSMKEPLEAQNIPDNFGNVSPEMTLVLHLAWVACGYIIWQNSTEDTWYKMVKIQTVKQVQRNDDFIELDYTILLHNIASQEIIPWQMQVLWHPQYGTKVKHNSRLPKEVQLE
Ki (bCPA1 [2]; ref Pallarès et al., 2005 [15]): 1.2 ± 0.2 nM
Ki (hCPA1; ref Pallarès et al., 2005 [15]): 1.6 ± 0.2 nM
Ki (hCPA2; ref Pallarès et al., 2005 [15]): 3.5 ± 0.3 nM
Ki (hCPA4; ref Pallarès et al., 2005 [15]): 3 ± 0.3 nM
Ki (hCPB; ref Pallarès et al., 2005 [15]): 1.1 ± 0.1 nM
Ki (hTAFI; ref Pallarès et al., 2005 [15]): 1.8 ± 0.3 nM

B2: rLCI: recombinant carboxypeptidase inhibitor from the medical leech Hirudo medicinalis (protein, UniProt P81511 16-81, looked up)
Metallocarboxypeptidase …: SHTPDESFLCYQPDQVCCFICRGAAPLPSEGECNPHPTAPWCREGAVEWVPYSTGQCRTTCIPYVE
Ki (bCPA1 [2]; ref Arolas et al., 2004 [21]): 1.1 ± 0.2 nM
Ki (hCPA1; ref Arolas et al., 2004 [21]): 1.3 ± 0.4 nM
Ki (hCPA2; ref Arolas et al., 2004 [21]): 4.5 ± 0.6 nM
Ki (hCPA4; ref Tanco et al., 2010 [22]): 7.3 ± 0.4 nM
Ki (pCPB): 2.4 ± 0.5 nM
Ki (hCPB; ref Arolas et al., 2004 [21]): 1.2 ± 0.3 nM

B3: rACI: recombinant carboxypeptidase inhibitor from the intestinal parasite Ascaris suum (protein)
chain: VRKCLSDTDCTNGEKCVQKNKICSTIVEIQRCEKEHFTIPCKSNNDCQVWAHEKICNKGCCWDLL
modifications: intrachain disulphides
Ki (bCPA1 [2]; ref Sanglas et al., 2009 [10]): 2.4 ± 0.3 nM
Ki (hCPA1; ref Sanglas et al., 2009 [10]): 1.6 ± 0.2 nM
Ki (hCPA2; ref Sanglas et al., 2009 [10]): 2.5 ± 0.2 nM
Ki (hCPA4; ref Sanglas et al., 2009 [10]): 23.9 ± 3.1 nM
Ki (hTAFI; ref Sanglas et al., 2009 [10]): 42 ± 1.7 nM
